According to patent US20250011734A1, “DGAT1/2-INDEPENDENT ENZYME SYNTHESIZING STORAGE LIPIDS (DIESL)” (STICHTING HET NEDERLANDS KANKER INSTITUUT-ANTONI VAN …, priority 2021, published 2025):

Assays:
[1] = system: HAP1 4KO cells (ΔDGAT1ΔDGAT2ΔDIESLΔTMX1); experiment: Shotgun lipidomics of HAP1 4KO cells reconstituted with WT or H130A DIESL; format: cell-based, human; conditions: HAP1 4KO cells expressing active (WT) or catalytic-inactive (H130A) DIESL; FIG. 4B
Description: HAP1 4KO (ΔDGAT1ΔDGAT2ΔDIESLΔTMX1) cells, reconstituted with WT or H130A DIESL, were cultured in complete medium. Prior to collection, cells were cultured in serum-free IMDM for thirty minutes. Cells were then collected by trypsinization, washed twice with PBS and three million cells (in triplicate) were pelleted and stored at −80° C. For E. coli samples, 2 ml of induced culture (as described above, in triplicate) was pelleted and incubated overnight at −80° C. The following day, bacterial pellets were thawed and incubated in 25 μg/ml lysozyme in PBS for 30 minutes. Cells were pelleted, washed in PBS, and then pelleted again before resuspension in distilled water. Cells were sonicated at 60% amplitude for 5 minutes, in continuous 5-second on/25-second off cycles. The insoluble fraction was pelleted by centrifugation and the lysate (supernatant) was quantified for protein and stored at −80° C. […]
Samples were analyzed by direct infusion on a QExactive mass spectrometer (Thermo Scientific) equipped with a TriVersa NanoMate ion source (Advion Biosciences). Samples were analyzed in both positive and negative ion modes with a resolution of Rm/z=200=280000 for MS and Rm/z=200=17500 for MSMS experiments, in a single acquisition. […]
Data were analyzed by Lipotype GmbH with in-house developed lipid identification software based on LipidXplorer (41, 42). […]

E. coli = experiment: Recombinant expression of DIESL in E. coli, TAG by TLC and mass spectrometry; format: cell-based; conditions: human DIESL preceded by a bacterial membrane targeting sequence, FIG. 4F
Description: E. coli BL21 were transformed with pET24 or pET28a plasmids expressing the indicated construct. Single clones were cultured up to a 5 ml volume in LB broth at OD 0.5 at 37° C. Cultures were then transferred to 25° C. for one hour, and then expression was induced with 0.2 mM IPTG for 16h. For SDS-PAGE and immunoblot analysis, 100 ul of culture was pelleted for 5 minutes at 3,500 g before lysis in SDS-PAGE sample buffer.
Equivalent numbers of human cells grown to confluence in 6-well plates were first washed with PBS. Cells were then incubated twice in 400 μl extraction buffer (3:2 hexane:isopropanol) for 10 minutes (35). E. coli cell pellets from 2 ml of overnight culture were incubated in 500 μl extraction buffer (only once) for 30 minutes while rotating. Extractions were pooled and dried under nitrogen stream, to a volume of ˜10 μl, and then spotted on silica gel 60 TLC plates (Sigma-Aldrich). Plates were placed in a TLC tank containing a mobile phase to separate neutral lipids (80:20:1 hexane:diethyl ether:acetic acid) or polar lipids (60:50:4:1 chloroform:methanol:water:acetic acid). […] After drying, NBD fluorescence was monitored on a Universal Hood GelDoc system (Bio-Rad) using the fluorescein channel. […] (shaking at 850 rpm) for the indicated time (final [14C] DAG concentration, 50 μM; total radioactivity per assay, 0.14 μCi). […]

B1: active DIESL: DIESL polypeptide (human transmembrane protein 68, SEQ ID NO: 1) with triacylglycerol synthase activity (protein, listed as Homo sapiens)
chain: MIDKNQTCGVGQDSVPYMICLIHILEEWFGVEQLEDYLNFANYLLWVFTPLILLILPYFTIFLLYLTIIFLHIYKRKNVLKEAYSHNLWDGARKTVATLWDGHAAVWHGYEVHGMEKIPEDGPALIIFYHGAIPIDFYYFMAKIFIHKGRTCRVVADHFVFKIPGFSLLLDVFCALHGPREKCVEILRSGHLLAISPGGVREALISDETYNIVWGHRRGFAQVAIDAKVPIIPMFTQNIREGFRSLGGTRLFRWLYEKFRYPFAPMYGGFPVKLRTYLGDPIPYDPQITAEELAEKTKNAVQALIDKHQRIPGNIMSALLERFH
- TAG abundance as share of the lipidome [1]: 20.5 % of the lipidome
- TAG synthesis in E. coli (E. coli): induced de novo TAG synthesis
